Three molecules from patent publication US20110045534A1 can be followed below.

The target of assay [1] is immunizing peptide for ERK2p. Nature of the assay: ELISA on coated peptide; supernatant 1x. Background: In an ELISA, binding on a coated surface is turned into a signal by an enzyme label.
Assay [2] has as its target immunizing peptide for MRPL11. Kind of assay: ELISA on coated peptide; supernatant 1x.
The target of assay [3] is immunizing peptide for SUZ12. Kind of assay: ELISA on coated peptide; supernatant 1x.
For assay [4], the target named is immunizing peptide for ERK2p. Nature of the assay: ELISA on coated peptide; supernatant 1/10.
Assay [5] addresses immunizing peptide for MRPL11. Nature of the assay: ELISA on coated peptide; supernatant 1/10.
Assay [6] addresses immunizing peptide for SUZ12. Nature of the assay: ELISA on coated peptide; supernatant 1/10.

Where “and” joins values, the source holds several entries; their conditions need not be identical. Identical values can stand only once.

B1: anti-MRPL11 rabbit IgG expressed from the L-2A-H cassette (antibody)
light: QVLTQTPSPVSAAVGNTVTINCQASQSVRDNNYLSWYQQKPGQPPKLLIYRASTLESGVPSRFKGNGSGTQFTLTISDLECDDAATYYCQGGYGGNFFPFGGGTEVVVKGDPVAPTVLIFPPAADQVATGTVTIVCVANKYFPDVTVTWEVDGTTQTTGIENSKTPQNSADCTYNLSSTLTLTSTQYNSHKEYTCKVTQGTTSVVQSFNRGDCEGRGSLLTCGDVEENPG
heavy: QSVEESGGRLVKPDETLTITCTVSGIDLNNNAMGWVRQAPGEGLEYIGFIGGSGATYYSTWAKGRFTISKSSTTVDLMITSPTTEDTATYFCARYAGSGSFDFSGPGTLVTVSLGQPKAPSVFPLAPCCGDTPSSTVTLGCLVKGYLPEPVTVTWNSGTLTNGVRTFPSVRQSSGLYSLSSVVSVTSSSQPVTCNVAHPATNTKVDKTVAPSTCSKPTCPPPELLGGPSVFIFPPKPKDTLMISRTPEVTCVVVDVSQDDPEVQFTWYINNEQVRTARPPLREQQFNSTIRVVSTLPIAHQDWLRGKEFKCKVHNKALPAPIEKTISKARGQPLEPKVYTMGPPREELSSRSVSLTCMINGFYPSDISVEWEKNGKAEDNYKTTPAVLDSDGSYFLYSKLSVPTSEWQRGDVFTCSVMHEALHNHYTQKSISRSPGK
For the molecule B1, the absorbance (OD 450 nm) in assay [1] is 0.0663 OD450 and 0.0671 OD450; in assay [2], 0.973 OD450 and 0.998 OD450; in assay [3] it was 0.0542 OD450 and 0.0585 OD450; in assay [4] it was 0.0621 OD450 and 0.0483 OD450; in assay [5], 1.14 OD450 and 0.99 OD450; in assay [6], 0.0486 OD450 and 0.0529 OD450.

B2: anti-MRPL11 rabbit IgG expressed from the H-2A-L cassette (antibody)
heavy: QSVEESGGRLVKPDETLTITCTVSGIDLNNNAMGWVRQAPGEGLEYIGFIGGSGATYYSTWAKGRFTISKSSTTVDLMITSPTTEDTATYFCARYAGSGSFDFSGPGTLVTVSLGQPKAPSVFPLAPCCGDTPSSTVTLGCLVKGYLPEPVTVTWNSGTLTNGVRTFPSVRQSSGLYSLSSVVSVTSSSQPVTCNVAHPATNTKVDKTVAPSTCSKPTCPPPELLGGPSVFIFPPKPKDTLMISRTPEVTCVVVDVSQDDPEVQFTWYINNEQVRTARPPLREQQFNSTIRVVSTLPIAHQDWLRGKEFKCKVHNKALPAPIEKTISKARGQPLEPKVYTMGPPREELSSRSVSLTCMINGFYPSDISVEWEKNGKAEDNYKTTPAVLDSDGSYFLYSKLSVPTSEWQRGDVFTCSVMHEALHNHYTQKSISRSPGKEGRGSLLTCGDVEENPG
light: QVLTQTPSPVSAAVGNTVTINCQASQSVRDNNYLSWYQQKPGQPPKLLIYRASTLESGVPSRFKGNGSGTQFTLTISDLECDDAATYYCQGGYGGNFFPFGGGTEVVVKGDPVAPTVLIFPPAADQVATGTVTIVCVANKYFPDVTVTWEVDGTTQTTGIENSKTPQNSADCTYNLSSTLTLTSTQYNSHKEYTCKVTQGTTSVVQSFNRGDC
As for B2, the absorbance (OD 450 nm) in assay [1] is 0.0534 OD450 and 0.0524 OD450; in assay [2] it was 1.01 OD450 and 1.06 OD450; in assay [3], 0.0487 OD450 and 0.0489 OD450; in assay [4] it was 0.0478 OD450 and 0.0482 OD450; in assay [5], 0.972 OD450 and 1.04 OD450; in assay [6] it was 0.0461 OD450 and 0.0445 OD450.

B3: anti-MRPL11 rabbit IgG expressed from two separate vectors (H + L positive control) (antibody)
heavy: QSVEESGGRLVKPDETLTITCTVSGIDLNNNAMGWVRQAPGEGLEYIGFIGGSGATYYSTWAKGRFTISKSSTTVDLMITSPTTEDTATYFCARYAGSGSFDFSGPGTLVTVSLGQPKAPSVFPLAPCCGDTPSSTVTLGCLVKGYLPEPVTVTWNSGTLTNGVRTFPSVRQSSGLYSLSSVVSVTSSSQPVTCNVAHPATNTKVDKTVAPSTCSKPTCPPPELLGGPSVFIFPPKPKDTLMISRTPEVTCVVVDVSQDDPEVQFTWYINNEQVRTARPPLREQQFNSTIRVVSTLPIAHQDWLRGKEFKCKVHNKALPAPIEKTISKARGQPLEPKVYTMGPPREELSSRSVSLTCMINGFYPSDISVEWEKNGKAEDNYKTTPAVLDSDGSYFLYSKLSVPTSEWQRGDVFTCSVMHEALHNHYTQKSISRSPGK
light: QVLTQTPSPVSAAVGNTVTINCQASQSVRDNNYLSWYQQKPGQPPKLLIYRASTLESGVPSRFKGNGSGTQFTLTISDLECDDAATYYCQGGYGGNFFPFGGGTEVVVKGDPVAPTVLIFPPAADQVATGTVTIVCVANKYFPDVTVTWEVDGTTQTTGIENSKTPQNSADCTYNLSSTLTLTSTQYNSHKEYTCKVTQGTTSVVQSFNRGDC
As for B3, the absorbance (OD 450 nm) turned out to be 0.0575 OD450 in assay [1]; 0.971 OD450 in assay [2]; 0.0474 OD450 in assay [3]; 0.0629 OD450 in assay [4]; 1.01 OD450 in assay [5]; 0.0485 OD450 in assay [6].
